From PMC2196189 (The Journal of Cell Biology, 2001)
One block for each binder: values may come before it.

Columns and labels:
[1] = target: T1, Kap95p–Kap60p heterodimers (recombinant) (S. cerevisiae, UniProt Q06142 1-861; Q02821 1-542); assay: pull-down
T1 sequence (looked up) 1: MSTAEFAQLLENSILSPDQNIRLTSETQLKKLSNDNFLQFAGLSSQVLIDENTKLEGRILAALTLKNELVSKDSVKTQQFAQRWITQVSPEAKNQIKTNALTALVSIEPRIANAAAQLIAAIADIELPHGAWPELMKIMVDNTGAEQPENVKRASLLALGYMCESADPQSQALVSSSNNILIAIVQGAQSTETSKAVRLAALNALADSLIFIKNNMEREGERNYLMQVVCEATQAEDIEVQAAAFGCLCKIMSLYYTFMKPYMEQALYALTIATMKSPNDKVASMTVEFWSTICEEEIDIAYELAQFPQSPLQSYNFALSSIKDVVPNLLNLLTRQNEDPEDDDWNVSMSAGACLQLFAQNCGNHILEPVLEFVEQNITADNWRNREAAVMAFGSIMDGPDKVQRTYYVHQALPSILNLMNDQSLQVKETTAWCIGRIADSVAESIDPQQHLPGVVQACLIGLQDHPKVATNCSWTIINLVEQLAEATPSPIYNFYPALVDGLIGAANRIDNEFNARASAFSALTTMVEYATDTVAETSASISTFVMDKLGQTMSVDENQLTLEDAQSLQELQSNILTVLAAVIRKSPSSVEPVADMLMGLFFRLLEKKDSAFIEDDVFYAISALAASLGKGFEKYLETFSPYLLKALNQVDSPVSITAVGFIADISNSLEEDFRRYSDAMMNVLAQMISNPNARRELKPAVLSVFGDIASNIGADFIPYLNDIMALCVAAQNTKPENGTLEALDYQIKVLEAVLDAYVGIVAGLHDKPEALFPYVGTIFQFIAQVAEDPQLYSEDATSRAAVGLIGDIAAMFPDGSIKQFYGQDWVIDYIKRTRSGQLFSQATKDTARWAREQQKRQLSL
T1 sequence (looked up) 2: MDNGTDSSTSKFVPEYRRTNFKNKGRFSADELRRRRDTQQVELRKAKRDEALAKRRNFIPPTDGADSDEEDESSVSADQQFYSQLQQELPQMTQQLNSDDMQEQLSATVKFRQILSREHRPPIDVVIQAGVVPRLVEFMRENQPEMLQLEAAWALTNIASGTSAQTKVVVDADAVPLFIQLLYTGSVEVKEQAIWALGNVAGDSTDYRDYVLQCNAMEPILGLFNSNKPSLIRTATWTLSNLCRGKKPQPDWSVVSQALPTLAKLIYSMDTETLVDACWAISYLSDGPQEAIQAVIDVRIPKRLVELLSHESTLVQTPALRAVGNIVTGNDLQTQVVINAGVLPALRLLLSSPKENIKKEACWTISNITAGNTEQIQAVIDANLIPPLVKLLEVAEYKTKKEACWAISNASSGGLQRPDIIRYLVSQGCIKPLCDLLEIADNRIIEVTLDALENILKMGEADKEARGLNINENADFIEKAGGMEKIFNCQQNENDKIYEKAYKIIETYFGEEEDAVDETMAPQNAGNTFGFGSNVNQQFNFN

Kap95p (recombinant) = target: T2, Kap95p (recombinant) (S. cerevisiae, UniProt Q06142 1-861); assay: pull-down
T2 sequence (looked up): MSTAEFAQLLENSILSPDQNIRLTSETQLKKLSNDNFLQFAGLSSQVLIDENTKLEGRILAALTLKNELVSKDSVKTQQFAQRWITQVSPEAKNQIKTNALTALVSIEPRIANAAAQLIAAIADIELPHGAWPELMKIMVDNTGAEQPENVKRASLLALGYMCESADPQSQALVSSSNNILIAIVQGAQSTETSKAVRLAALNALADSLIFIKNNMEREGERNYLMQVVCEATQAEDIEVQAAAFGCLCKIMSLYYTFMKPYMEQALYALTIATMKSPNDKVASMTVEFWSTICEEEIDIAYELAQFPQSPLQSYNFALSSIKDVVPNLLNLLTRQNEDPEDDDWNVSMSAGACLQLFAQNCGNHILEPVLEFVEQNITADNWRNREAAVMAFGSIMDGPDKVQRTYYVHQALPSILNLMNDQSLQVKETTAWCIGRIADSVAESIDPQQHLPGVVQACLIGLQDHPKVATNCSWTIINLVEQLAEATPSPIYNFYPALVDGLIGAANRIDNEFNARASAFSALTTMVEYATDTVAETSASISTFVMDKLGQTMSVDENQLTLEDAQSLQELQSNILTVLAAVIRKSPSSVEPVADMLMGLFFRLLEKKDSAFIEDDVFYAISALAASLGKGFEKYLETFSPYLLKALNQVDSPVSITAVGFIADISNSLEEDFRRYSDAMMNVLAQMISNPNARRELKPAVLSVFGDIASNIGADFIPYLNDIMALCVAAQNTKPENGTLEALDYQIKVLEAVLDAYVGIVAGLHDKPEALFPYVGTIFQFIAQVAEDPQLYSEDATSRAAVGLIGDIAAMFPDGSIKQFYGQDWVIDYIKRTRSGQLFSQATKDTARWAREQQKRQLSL

GST–Nup60p = GST–Nup60p (S. cerevisiae, UniProt P39705 1-539); assay: pull-down
[2] = target: Nup2p (construct of the data-not-shown experiments not stated) (S. cerevisiae, UniProt P32499 1-720); assay: radioligand binding
Chain of Nup2p (construct of the data-not-shown experiments not stated) (P32499 whole entry): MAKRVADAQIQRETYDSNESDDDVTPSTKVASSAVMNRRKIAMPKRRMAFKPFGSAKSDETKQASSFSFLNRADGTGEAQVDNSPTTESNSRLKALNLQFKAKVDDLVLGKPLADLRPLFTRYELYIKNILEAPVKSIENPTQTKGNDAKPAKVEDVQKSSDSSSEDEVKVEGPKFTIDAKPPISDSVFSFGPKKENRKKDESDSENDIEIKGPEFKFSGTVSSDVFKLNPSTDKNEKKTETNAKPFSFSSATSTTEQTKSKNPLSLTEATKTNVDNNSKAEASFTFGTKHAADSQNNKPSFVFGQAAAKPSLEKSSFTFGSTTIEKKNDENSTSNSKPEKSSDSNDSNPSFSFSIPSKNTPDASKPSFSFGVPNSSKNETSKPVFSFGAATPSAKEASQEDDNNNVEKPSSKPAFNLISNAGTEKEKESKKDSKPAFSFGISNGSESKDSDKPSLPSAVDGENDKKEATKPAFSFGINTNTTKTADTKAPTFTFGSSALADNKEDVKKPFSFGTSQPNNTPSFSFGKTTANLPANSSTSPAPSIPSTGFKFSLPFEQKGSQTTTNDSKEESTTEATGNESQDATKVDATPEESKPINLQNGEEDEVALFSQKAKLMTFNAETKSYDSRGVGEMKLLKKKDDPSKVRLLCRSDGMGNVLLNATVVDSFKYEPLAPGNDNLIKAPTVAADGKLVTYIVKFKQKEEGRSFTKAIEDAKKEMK

B2: GST–Nup60p (aa 188–388) (domain or fragment, S. cerevisiae, UniProt P39705 188-388, looked up)
chain: PTFNPKYDTSNASMNTTLGSIGSRKYSFNYSSLPSPYKTTVYRYSAAKKIPDTYTANTSAQSIASAKSVRSGVSKSAPSKKISNTAAALVSLLDENDSKKNNAASELANPYSSYVSQIRKHKRVSPNAAPRQEISEEETTVKPLFQNVPEQGEEPMKQLNATKISPSAPSKDSFTKYKPARSSSLRSNVVVAETSPEKKDG
binding result (Kap95p (recombinant)): binds

B3: Prp20p (natural protein)
chain: MVKRTVATNGDASGAHRAKKMSKTHASHIINAQEDYKHMYLSVQPLDIFCWGTGSMCELGLGPLAKNKEVKRPRLNPFLPRDEAKIISFAVGGMHTLALDEESNVWSWGCNDVGALGRDTSNAKEQLKDMDADDSSDDEDGDLNELESTPAKIPRESFPPLAEGHKVVQLAATDNMSCALFSNGEVYAWGTFRCNEGILGFYQDKIKIQKTPWKVPTFSKYNIVQLAPGKDHILFLDEEGMVFAWGNGQQNQLGRKVMERFRLKTLDPRPFGLRHVKYIASGENHCFALTKDNKLVSWGLNQFGQCGVSEDVEDGALVTKPKRLALPDNVVIRSIAAGEHHSLILSQDGDLYSCGRLDMFEVGIPKDNLPEYTYKDVHGKARAVPLPTKLNNVPKFKSVAAGSHHSVAVAQNGIAYSWGFGETYAVGLGPFEDDTEVPTRIKNTATQDHNIILVGCGGQFSVSGGVKLSDEDAEKRADEMDD
binding result (GST–Nup60p): binds

B5: Kap60p (recombinant) (natural protein, S. cerevisiae, UniProt Q02821 1-542, looked up)
chain: MDNGTDSSTSKFVPEYRRTNFKNKGRFSADELRRRRDTQQVELRKAKRDEALAKRRNFIPPTDGADSDEEDESSVSADQQFYSQLQQELPQMTQQLNSDDMQEQLSATVKFRQILSREHRPPIDVVIQAGVVPRLVEFMRENQPEMLQLEAAWALTNIASGTSAQTKVVVDADAVPLFIQLLYTGSVEVKEQAIWALGNVAGDSTDYRDYVLQCNAMEPILGLFNSNKPSLIRTATWTLSNLCRGKKPQPDWSVVSQALPTLAKLIYSMDTETLVDACWAISYLSDGPQEAIQAVIDVRIPKRLVELLSHESTLVQTPALRAVGNIVTGNDLQTQVVINAGVLPALRLLLSSPKENIKKEACWTISNITAGNTEQIQAVIDANLIPPLVKLLEVAEYKTKKEACWAISNASSGGLQRPDIIRYLVSQGCIKPLCDLLEIADNRIIEVTLDALENILKMGEADKEARGLNINENADFIEKAGGMEKIFNCQQNENDKIYEKAYKIIETYFGEEEDAVDETMAPQNAGNTFGFGSNVNQQFNFN
Kd [2]: ~0.2 nM

Continued, values first:

binding result [1]: binds
B1: GST–Nup60p (aa 389–539) (domain or fragment, S. cerevisiae, UniProt P39705 389-539, looked up)
chain: GDKPPSSAFNFSFNTSRNVEPTENAYKSENAPSASSKEFNFTNLQAKPLVGKPKTELTKGDSTPVQPDLSVTPQKSSSKGFVFNSVQKKSRSNLSQENDNEGKHISASIDNDFSEEKAEEFDFNVPVVSKQLGNGLVDENKVEAFKSLYTF

binding result (Kap95p (recombinant)): binds
B4: GST–Nup60p (aa 1–187) (domain or fragment, S. cerevisiae, UniProt P39705 1-187, looked up)
chain: MHRKSLRRASATVPSAPYRKQIISNAHNKPSLFSKIKTFFTQKDSARVSPRNNVANKQPRNESFNRRISSMPGGYFHSEISPDSTVNRSVVVSAVGEARNDIENKEEEYDETHETNISNAKLANFFSKKGNEPLSEIEIEGVMSLLQKSSKSMITSEGEQKSAEGNNIDQSLILKESGSTPISISNA
